From FireProtDB (doi:10.1021/bi00369a002)
Values joined by “and” are separate entries in the source; they are usually repeats but may differ in a detail not shown here. Equal values may be shown once.

B1: Tryptophan synthase alpha chain, P0A877 (parent)
chain: MERYESLFAQLKERKEGAFVPFVTLGDPGIEQSLKIIDTLIEAGADALELGIPFSDPLADGPTIQNATLRAFAAGVTPAQCFEMLALIRQKHPTIPIGLLMYANLVFNKGIDEFYAQCEKVGVDSVLVADVPVEESAPFRQAALRHNVAPIFICPPNADDDLLRQIASYGRGYTYLLSRAGVTGAENRAALPLNHLVAKLKEYNAAPPLQGFGISAPDQVKAAIDAGAAGAISGSAIVKIIEQHINEPEKMLAALKVFVQPMKAATRS

Variants of: B1
Conditions: Escherichia coli (strain K12); pH 7.8; 25 °C; Urea; Absorbance; Potassium phosphate 10 mM; transition: 3; structure 1WQ5; whole UniProt chain shown

Row | Variant | denaturant m value | denaturant midpoint (higher = more stable) | ddG of mutation (higher = less stable)
1 | G211E | 3 kcal/mol/M and 1.5 kcal/mol/M | 2.73 M and 3.72 M | 
2 | Y175C | 3 kcal/mol/M and 1.1 kcal/mol/M | 2.58 M and 3.71 M | 
3 | Y175C G211E | 3 kcal/mol/M and 1.4 kcal/mol/M | 2.2 M and 3.49 M | 1.3 kcal/mol and 1 kcal/mol
